Source: patent publication US20240117018A1

Legend:
Assay in all cases: cell-based or functional assay
[1] = target: HIV-1 Env of pseudovirus P0402_c2_11 (HIV-1)
[2] = target: HIV-1 Env of pseudovirus X2088_c9 (HIV-1)
[3] = target: HIV-1 Env of pseudovirus 3103.v3.c10 (HIV-1)
[4] = target: HIV-1 Env of pseudovirus R3265.c06 (HIV-1)
[5] = target: HIV-1 Env of pseudovirus T251-18 (HIV-1)
[6] = target: HIV-1 Env of pseudovirus X1254_c3 (HIV-1)
[7] = target: HIV-1 Env of pseudovirus X1193_c1 (HIV-1)
[8] = target: HIV-1 Env of pseudovirus 0815.v3.c3 (HIV-1)
[9] = target: HIV-1 Env of pseudovirus A07412M1.vrc12 (HIV-1)
[10] = target: HIV-1 Env of pseudovirus BJOX009000.02.4 (HIV-1)
[11] = target: HIV-1 Env of pseudovirus T278-50 (HIV-1)
[12] = target: HIV-1 Env of pseudovirus P1981_C5_3 (HIV-1)
[13] = target: HIV-1 Env of pseudovirus 263-8 (HIV-1)
[14] = target: HIV-1 Env of pseudovirus 9004SS_A3_4 (HIV-1)
[15] = target: HIV-1 Env of pseudovirus 620345.c01 (HIV-1)
[16] = target: HIV-1 Env of pseudovirus 191084 B7-19 (HIV-1)
[17] = target: HIV-1 Env of pseudovirus 231965.c01 (HIV-1)
[18] = target: HIV-1 Env of pseudovirus 6041.v3.c23 (HIV-1)
[19] = target: HIV-1 Env of pseudovirus 211-9 (HIV-1)
[20] = target: HIV-1 Env of pseudovirus R2184.c04 (HIV-1)
[21] = target: HIV-1 Env of pseudovirus 6545.v4.c1 (HIV-1)
[22] = target: HIV-1 Env of pseudovirus C3347.c11 (HIV-1)
[23] = target: HIV-1 Env of pseudovirus C1080.c03 (HIV-1)
[24] = target: HIV-1 Env of pseudovirus C4118.c09 (HIV-1)
[25] = target: HIV-1 Env of pseudovirus 231966.c02 (HIV-1)
[26] = target: HIV-1 Env of pseudovirus BJOX028000.10.3 (HIV-1)
[27] = target: HIV-1 Env of pseudovirus BJOX010000.06.2 (HIV-1)
[28] = target: HIV-1 Env of pseudovirus BJOX025000.01.1 (HIV-1)
[29] = target: HIV-1 Env of pseudovirus 3301.v1.c24 (HIV-1)
[30] = target: HIV-1 Env of pseudovirus T255-34 (HIV-1)
[31] = target: HIV-1 Env of pseudovirus 3016.v5.c45 (HIV-1)
[32] = target: HIV-1 Env of pseudovirus R1166.c01 (HIV-1)
[33] = target: HIV-1 Env of pseudovirus T257-31 (HIV-1)
[34] = target: HIV-1 Env of pseudovirus 6540.v4.c1 (HIV-1)
[35] = target: HIV-1 Env of pseudovirus 89-F1_2_25 (HIV-1)
[36] = target: HIV-1 Env of pseudovirus 6952.v1.c20 (HIV-1)
[37] = target: HIV-1 Env of pseudovirus X2131_C1_B5 (HIV-1)

With PGDM1400 (antibody) the IC50 (Titer in TZM.bl cells) [1] was 0.01 µg/mL, the IC80 (Titer in TZM.bl cells) [1] was 0.033 µg/mL and the IC50 (Titer in TZM.bl cells) [2] was > 50 µg/mL. The IC80 (Titer in TZM.bl cells) [2] was > 50 µg/mL, the IC50 (Titer in TZM.bl cells) [3] was 0.671 µg/mL and the IC80 (Titer in TZM.bl cells) [3] was 2 µg/mL. The IC50 (Titer in TZM.bl cells) [4] was 0.013 µg/mL, the IC80 (Titer in TZM.bl cells) [4] was 0.041 µg/mL and the IC50 (Titer in TZM.bl cells) [5] was 8.62 µg/mL. For the same substance, the IC80 (Titer in TZM.bl cells) [5] was 43.1 µg/mL, the IC50 (Titer in TZM.bl cells) [6] was > 50 µg/mL and the IC80 (Titer in TZM.bl cells) [6] was > 50 µg/mL. For the same substance, the IC50 (Titer in TZM.bl cells) [7] was 0.219 µg/mL, the IC80 (Titer in TZM.bl cells) [7] was 0.781 µg/mL and the IC50 (Titer in TZM.bl cells) [8] was > 50 µg/mL. For the same substance, the IC80 (Titer in TZM.bl cells) [8] was > 50 µg/mL, the IC50 (Titer in TZM.bl cells) [9] was 0.032 µg/mL and the IC80 (Titer in TZM.bl cells) [9] was 0.127 µg/mL. For the same substance, the IC50 (Titer in TZM.bl cells) [10] was 0.443 µg/mL, the IC80 (Titer in TZM.bl cells) [10] was 1.29 µg/mL and the IC50 (Titer in TZM.bl cells) [11] was 0.574 µg/mL. The IC80 (Titer in TZM.bl cells) [11] was 4.94 µg/mL, the IC50 (Titer in TZM.bl cells) [12] was 0.104 µg/mL and the IC80 (Titer in TZM.bl cells) [12] was 4.6 µg/mL. For the same substance, the neutralization IC50 [13] was 0.02 µg/mL, the neutralization IC80 [13] was 0.103 µg/mL and the neutralization IC50 [14] was < 0.001 µg/mL. It also gave a neutralization IC80 [14] of 0.002 µg/mL, an IC50 (Titer in TZM.bl cells) [15] of 0.009 µg/mL and an IC80 (Titer in TZM.bl cells) [15] of 40.3 µg/mL. For the same substance, the neutralization IC50 [16] was < 0.001 µg/mL, the neutralization IC80 [16] was 0.007 µg/mL and the IC50 (Titer in TZM.bl cells) [17] was 0.025 µg/mL. It also gave an IC80 (Titer in TZM.bl cells) [17] of 1.28 µg/mL, an IC50 (Titer in TZM.bl cells) [18] of 0.013 µg/mL and an IC80 (Titer in TZM.bl cells) [18] of 0.289 µg/mL. It also gave an IC50 (Titer in TZM.bl cells) [19] of 0.088 µg/mL, an IC80 (Titer in TZM.bl cells) [19] of 0.393 µg/mL and an IC50 (Titer in TZM.bl cells) [20] of 0.003 µg/mL. The IC80 (Titer in TZM.bl cells) [20] was 0.012 µg/mL, the IC50 (Titer in TZM.bl cells) [21] was 0.003 µg/mL and the IC80 (Titer in TZM.bl cells) [21] was 0.039 µg/mL. For the same substance, the IC50 (Titer in TZM.bl cells) [22] was 0.011 µg/mL, the IC80 (Titer in TZM.bl cells) [22] was 0.051 µg/mL and the IC50 (Titer in TZM.bl cells) [23] was < 0.001 µg/mL. For the same substance, the IC80 (Titer in TZM.bl cells) [23] was < 0.001 µg/mL, the IC50 (Titer in TZM.bl cells) [24] was 0.002 µg/mL and the IC80 (Titer in TZM.bl cells) [24] was 0.005 µg/mL. For the same substance, the IC50 (Titer in TZM.bl cells) [25] was 0.001 µg/mL, the IC80 (Titer in TZM.bl cells) [25] was 0.004 µg/mL and the IC50 (Titer in TZM.bl cells) [26] was 0.072 µg/mL. It also gave an IC80 (Titer in TZM.bl cells) [26] of 0.963 µg/mL, an IC50 (Titer in TZM.bl cells) [27] of 0.605 µg/mL and an IC80 (Titer in TZM.bl cells) [27] of 5.87 µg/mL. The IC50 (Titer in TZM.bl cells) [28] was 0.087 µg/mL, the IC80 (Titer in TZM.bl cells) [28] was 0.573 µg/mL and the IC50 (Titer in TZM.bl cells) [29] was 0.048 µg/mL. The IC80 (Titer in TZM.bl cells) [29] was 0.245 µg/mL, the IC50 (Titer in TZM.bl cells) [30] was 0.654 µg/mL and the IC80 (Titer in TZM.bl cells) [30] was > 50 µg/mL. For the same substance, the IC50 (Titer in TZM.bl cells) [31] was > 50 µg/mL, the IC80 (Titer in TZM.bl cells) [31] was > 50 µg/mL and the IC50 (Titer in TZM.bl cells) [32] was 1.43 µg/mL. The IC80 (Titer in TZM.bl cells) [32] was 6.92 µg/mL, the neutralization IC50 [33] was 0.002 µg/mL and the neutralization IC80 [33] was 0.031 µg/mL. The IC50 (Titer in TZM.bl cells) [34] was 0.004 µg/mL, the IC80 (Titer in TZM.bl cells) [34] was 0.028 µg/mL and the IC50 (Titer in TZM.bl cells) [35] was 0.001 µg/mL. For the same substance, the IC80 (Titer in TZM.bl cells) [35] was 0.005 µg/mL, the IC50 (Titer in TZM.bl cells) [36] was 0.501 µg/mL and the IC80 (Titer in TZM.bl cells) [36] was 11.8 µg/mL. For the same substance, the IC50 (Titer in TZM.bl cells) [37] was 0.128 µg/mL and the IC80 (Titer in TZM.bl cells) [37] was 0.568 µg/mL.
